Reference: US20230025525A1 (HELMHOLTZ ZENTRUM M NCHEN DEUTSCHES FORSCHUNGSZENTRUM F R …, published 2023)

B1: EIG-B 18B2 (antibody, V domains shown)
VH: QVQLKESGPGLVQPSQTLSLTCTVSGFSLTSYHISWVRQPPGKGLEWIAAISSGGDTYYNSLLKSRLSISRDTSKSQVFLKMNRLQTEDTAFYFCNGESYWGQGTLVTVSS
VL: DVVLTQSPATLSVTPGERISLSCRASENIDTYLHWFQQKPNESPRLLIKFASQSISGIPSRFSGSGSGRDFTLSINGVELEDLSIYYCQQGNILPYTFGAGTRLELKR
notes: Rat monoclonal antibody from a hybridoma; Only the variable regions are tied to the clone by name; also called EIG-B 1862
B2: EIG-B 10D9 (antibody, V domains shown)
VH: QVQLKESGPGLVQPSQTLSLTCTVSGFSLTSYHISWVRQPPGKGLEWIAAISSGGDTYYNSLLKSRLSISRDTSKSQVFLKMNRLQTEDTAFYFCNGESYWGQGTLVTVSS
VL: DVVLTQSPATLSVTPGERISLSCRASENIDTYLHWFQQKPNESPRLLIKFASQSISGIPSRFSGSGSGTDFTLSINGVELEDLSIYYCQQGNILPYTFGAGTKLELKR
notes: Rat monoclonal antibody from a hybridoma; Only the variable regions are tied to the clone by name; The constant regions are not tied to the clone
B3: EIG-D 26D7 (antibody, V domains shown)
VH: QVQLQQPGADLVRPGSSVKLSCKASGYSFTSYWMDWVKQRPGQGLEWIGNIYPSDGETHYNQKFKDKATLTVDKSSSTAYMQLSSLTSEDSAVYYCARLYSEYGSWGQGTTLTVSS
VL: DIVMTQSPSSLTVTTGEKVTMSCKSSQSLLNSGNQKNYLTWYQQRPGQPPKLLIYWASTRDSGVPDRFTGSGSGTDFTLTISSVQAADLAVYYCQNDYSYPLTFGAGTKLELKR
notes: Mouse monoclonal antibody from a hybridoma; Only the variable regions are tied to the clone by name; The constant regions are not tied to the clone

Molecular target: T1, human IGFR-like receptor (UPF0577 protein KIAA1324) (human, UniProt Q6UXG2 42-1013)
T1 construct: Endogenous protein in lysates of human MCF7 cells and human islet cells, seen as a band of ~130 kDa on Western blot; also called IGFR-I; IGF3R
T1 sequence: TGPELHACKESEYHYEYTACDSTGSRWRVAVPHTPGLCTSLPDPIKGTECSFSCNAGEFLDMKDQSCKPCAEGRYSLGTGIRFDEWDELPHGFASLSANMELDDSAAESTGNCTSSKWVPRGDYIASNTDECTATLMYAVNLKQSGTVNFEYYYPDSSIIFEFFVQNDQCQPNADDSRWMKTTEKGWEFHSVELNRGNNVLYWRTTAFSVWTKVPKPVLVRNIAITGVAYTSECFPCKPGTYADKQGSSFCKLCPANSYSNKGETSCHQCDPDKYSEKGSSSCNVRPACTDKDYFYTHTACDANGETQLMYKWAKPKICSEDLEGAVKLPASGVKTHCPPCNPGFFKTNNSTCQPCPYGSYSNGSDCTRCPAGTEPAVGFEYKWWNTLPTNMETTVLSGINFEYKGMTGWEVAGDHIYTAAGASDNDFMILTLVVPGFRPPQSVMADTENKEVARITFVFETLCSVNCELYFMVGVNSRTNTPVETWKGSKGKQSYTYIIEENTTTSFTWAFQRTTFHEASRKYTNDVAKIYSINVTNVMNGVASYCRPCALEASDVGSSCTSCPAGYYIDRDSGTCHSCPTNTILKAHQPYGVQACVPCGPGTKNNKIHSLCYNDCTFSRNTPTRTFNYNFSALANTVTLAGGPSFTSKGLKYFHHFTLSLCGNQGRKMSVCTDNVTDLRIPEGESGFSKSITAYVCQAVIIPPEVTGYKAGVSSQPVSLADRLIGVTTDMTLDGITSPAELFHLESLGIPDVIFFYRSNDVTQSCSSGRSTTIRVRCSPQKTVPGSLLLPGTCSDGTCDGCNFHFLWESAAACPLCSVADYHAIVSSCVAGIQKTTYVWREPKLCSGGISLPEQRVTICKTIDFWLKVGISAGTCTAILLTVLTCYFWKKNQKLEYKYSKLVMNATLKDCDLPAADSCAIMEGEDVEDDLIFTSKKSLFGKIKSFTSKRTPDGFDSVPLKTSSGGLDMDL
Test: Western blot, MCF7 cell lysate (strong)
Text: FIG. 29: Detection of IGFR-like receptor in mouse Min6 insulinoma cells and human MCF7 breast cancer cells using antibody against the extracellular domain of IGFR-like receptor. Western blotting experiments show specific recognition of a protein band of ˜130 kDa in Min6 (weak) and MCF7 (strong) cell lysates by an antibody against the extracellular domain SEQ ID NO: 4 (EIG-B 1862: VHC: SEQ ID NO:31, VLC: SEQ ID NO:32; and 10D9: VHC: SEQ ID NO:33, VLC: SEQ ID NO:34) and SEQ ID NO: 6 (EIG-D 26D7: VHC: SEQ ID NO:35, VLC: SEQ ID NO:36). The EIG-B clones are monoclonal antibodies generated against the peptide SEQ ID NO: 4 in rat, whereas the EIG-D clone is a monoclonal antibody generated against the SEQ ID NO: 6 in mouse.
Cells and tissues were lysed in RIPA buffer (50 mM Tris pH7.5, 150 mM NaCl, 1 mM EDTA, 1% IGEPAL, 0.1% SDS, 0.1% Na deoxycholate) containing a cocktail of proteinase inhibitor (1:100, Sigma, P8340) and phosphatases inhibitors (1:100, Sigma Aldrich, #2 P0044 and #3 P5726) and the cell or tissue lysates were cleared by centrifugation at 13000 r.p.m. for 10-30 min. The proteins (10-20 μg) were resolved in 6.5-15% SDS-PAGE according to the protein size to be detected and transferred to a PVDF membrane. Primary antibodies were added to the membrane in 5% milk and incubated at 4° C. overnight. Protein bands were visualized on Hyperfilms™ (GE healthcare, 28906837) or Blaufilme™ CEA-RP (Ernst Christiansen GmbH, EC84A) by chemiluminescent detection (ECL, Millipore, WBKLS0500).

Row | Binder | binding result
1 | B1 | binds
2 | B2 | binds
3 | B3 | binds
